Results from PMC3092513 (Enzyme Research, 2011).

B1: EcoDHQS (Escherichia coli K-12) (protein)
chain: MERIVVTLGERSYPITIASGLFNEPASFLPLKSGEQVMLVTNETLAPLYLDKVRGVLEQAGVNVDSVILPDGEQYKSLAVLDTVFTALLQKPHGRDTTLVALGGGVVGDLTGFAAASYQRGVRFIQVPTTLLSQVDSSVGGKTAVNHPLGKNMIGAFYQPASVVVDLDCLKTLPPRELASGLAEVIKYGIILDGAFFNWLEENLDALLRLDGPAMAYCIRRCCELKAEVVAADERETGLRALLNLGHTFGHAIEAEMGYGNWLHGEAVAAGMVMAARTSERLGQFSSAETQRIITLLKRAGLPVNGPREMSAQAYLPHMLRDKKVLAGEMRLILPLAIGKSEVRSGVSHELVLNAIADCQSA
notes: recombinant, overexpressed in E. coli RB791 from plasmid of J. R. Coggins; ammonium sulfate and anion exchange; no tag mentioned
B2: Pyrococcus furiosus dehydroquinate synthase (enzyme, UniProt Q8U0A8 1-335, looked up)
chain: MEGIIFGDLSTLPDLLSSLSPYKVVVLTNTTLKELWLEEVLTWLKEFKPQTIVVPDGEKYKDLDTVRYIWEKLLEMGFTRRSLLIGLGGGVITDIAGFVASTYMRGTYLGLVPTTLLAQVDAAIGGKTGINFYGKNIIGTFYLPKFVLICRDFLKTLPMVEILNGLAEVVKYGILDKEVYNAIKTMNSPREIVEREDIIKKSVAVKLRIVEEDLKENGKRRVLNLGHTVGHAIEKISDYKIKHGFAVSMGLVVEAKIGEILYGFDSGKVVEILTKFGLPVKIPFDPYTTLQAMKIDKKAWYGKIVIVVPVEIGKANIEEVDEKIILQALEEAKNA

What was measured:
[1] = substrate: O=C(O)C(=O)C[C@@H](O)[C@H](O)[C@H](O)COP(=O)(O)O; assay: purified protein; assay type: biochemical, Escherichia coli; conditions: 25 °C, pH 6.8
[2] = substrate: O=C(O)C(=O)C[C@@H](O)[C@H](O)[C@H](O)COP(=O)(O)O; assay: purified protein; assay type: biochemical, Pyrococcus furiosus; conditions: 60 °C, pH 6.8, 50 mM BTP, 10 μM EDTA, 100 μM ZnCl2, 29 μM NAD+, 56 nM enzyme
[3] = molecular target: the molecule itself; assay: SEC; Superdex S200 HR 10/300; 10 mM BTP, 10 μM EDTA, 50 mM KCl, pH 6.8; partially purified protein at ≤10 mg/mL; mass estimated from a standard curve of five proteins; dimer of the enzyme

| Protein | Km [1] | kcat [1] | kcat/Km [1] | Km [2] | kcat [2] | kcat/Km [2] | stoichiometry N [3] |
| --- | --- | --- | --- | --- | --- | --- | --- |
| B1 | 6.3 ± 0.2 µM | 16 ± 0.2 s⁻¹ | 2.5e+06 M⁻¹ s⁻¹ | – | – | – | – |
| B2 | – | – | – | 3.7 ± 0.2 µM | 3 ± 0.1 s⁻¹ | 800000 M⁻¹ s⁻¹ | 2 |
